Data taken from the nanobody polyreactivity screen of Harvey et al. (2022).

Assay: yeast display, Sf9 membrane polyspecificity reagent, FACS + sequencing; frameworks hold sequencing errors
In short: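 Galactose-induced (36–48 hours) yeast carrying a synthetic nanobody display library were exposed to 10% biotinylated, detergent-solubilized Sf9 membrane reagent at 4 °C for 1 hour. FACS followed streptavidin microbead enrichment, using low and high (top ~1%) gates for expression (anti-HA) and reagent binding (streptavidin). Colony PCR, MiSeq 2 × 250 sequencing and CDR-length filtering followed. Labels for polyreactivity reflect the gate of origin.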

Row | Sequence | polyreactivity (PSR sort gate)
1 | QLQHVESGGGLVQAGGSLRLSCAGTGRIMWRNAMGWYRQAPGKEMELVAAITSGSRTSYADSVKGRFTISRDNSKNTVYLQMNSLKPEDTAVYYCARRSYGIYYRSADESWGQGTQVTVSS | high polyreactivity
2 | QLQLEESGGGLVQAGGSLRLSCAASANTIYQYAMGRYRQAPGKERELVAAIDWSGGSTYADSVKGRFTISRDNAKNTVYLQMNSLKPEDTAFYYCNASVKPSNVWSRGYDYWGQGTQVTVSS | low polyreactivity
3 | QLQLEESGGGLVQAGGSLRLSCAASGFIFYSNAMGWYRKAPGKERELVASIPGDGGTTYYADSVKGRFTISRDNAKNTVYLQMNSLKPEDTAFYYCAKDYIYRGYYTDFRYEDYEYWGQGTQVTVSS | low polyreactivity
4 | QLQLEESGGGLVQAGGSLRLSCAPSGSILNIYAMGWYRQAPGKERELVAVITSGTNTNYAVSVKGRFTISRDNAKNTVYLQMNSRKPEDTAVYYCNDEKYWWGYEYWGQGTQVTVSS | high polyreactivity
5 | QLQLEESGGGLVQAGGSLRLSSAASGSIFYPNVMGWYRQAPGKERELVAAISWGGTSTNYADSVKGRFTISRDNAKNTVYLQMNSLKPEDTAVYYCAARTYWYGYNYWGQGTQVTVSS | high polyreactivity
6 | QLQLGESGRGGVQAGGSLRVSCAPSGLPFIYYAMGWYRPAPGKVRELVATISQSGSSTYYADSVKGRFTSSRDHATNTVDLQMNSLKPADTAVDYCNVSSVRWARFDYWGQGTQVTVSS | high polyreactivity
7 | QLQLQESGGGLVQADGSLRLSCAASGSIFGYYYMGWYRQAPGKDRELVATINICGITNYADSVKGRFTISRDNAKNTVYLQMNSLKPDDTAVYYCAADEYAQRDLGYWGQGTQVTVSS | low polyreactivity
8 | QLQLQESGGGLVQAGGSLRLSCAASALITKVYSMGWYRQAPGKERELVAVINSNGGSTYYADSVKGRFTISRDNAQNTVYLQMNSLKPEDTAVYYCRYFRPYGYNYWGQGTQVTVSS | high polyreactivity
9 | QLQLQESGGGLVQAGGSLRLSCAASGNISVTGFMGWYRQAPGKERELVASIGIGGTTYYADSVKGRFSISRDNAKNTVYLQMNSLKPEDTAVYYCAARYLYYAYSYWGQGTQVTVSS | low polyreactivity
10 | QLQLVDSGGGLVQAGGSLRLSCAASGRIFSANAMGWYRQAPGKERELVAAIDGSDGITYYADSVKGRFTISRDNAKNTVYLQMNSLKPEDTAVYYCAAYLPYTTYRYRYDYWGQGNQVTVSS | high polyreactivity
11 | QLQLVESGGCLVQAGGSLRLSCAASGIIFVVNDMGWYRQAPGNARELVADISDSGGSTNYADSVKGRFTISRDNAKNSVYLQMNSLKPEDTAVYYCAADSADPTEYDYWGQGTQVTLSS | low polyreactivity
12 | QLQLVESGGGLFQAGGSLRLSCAPSGFIFTAYTMGWYRQAHGKESELVAAIDSGGGTYYADYVKGRFTISRYNAKNTVYLQIHSLKPDDTAVYYCAADPAKSRAGDFDYWGQGTQVTVSS | high polyreactivity
13 | QLQLVESGGGLVQAGASLRLSCAASGSILWPSARGWYRQAPGKERELVAAISTGGSTYYADSVKGRFTISRDNAKNTVYLQMNSLKPEDTAVYYCAAYVDYSVYFGGGYWGQGTQVTVSS | low polyreactivity
14 | QLQLVESGGGLVQAGGSLRLICADSGRTFPSNTMGWYRQAPGKERELVAAITNSGGSTYYADSVKGRFTISRDNAKNTVYLQMNSLKPEDTAVYYCAKVVGAPYVEYDYWGQGTQVSVSS | low polyreactivity
15 | QLQLVESGGGLVQAGGSLRLSCAASGFIFPDYAMGWYRQAPGTERELVAAMRIRDGSTYYADSVKGRFTISRDNAKNTVYLQMNSLKPEAPAVYYCAVRSSYGYSDTNYIMYYWGQGTQVTVSS | low polyreactivity
16 | QLQLVESGGGLVQAGGSLRLSCAASGFTFRWNAMGWYRQAPGKERELLAAITNDDSTYYADSVKGRFTISRDNAKNSVYLQLNSLKPEDTAVYYCNARYGRYLDLDTGVALAGRGYWGQGTQVTVSS | low polyreactivity
17 | QLQLVESGGGLVQAGGSLRLSCAASGFTFSAYAMGSYRQAPGKERELVAAISWSGGSTYYADSVKGRFTISRDNAKNTVYLQRNSLKPEDTAVYYCAADFHSYYRFDYWGQGTQVTVSS | high polyreactivity
18 | QLQLVESGGGLVQAGGSLRLSCAASGITLYRYVMGWYRQAPGKERELVADISGRGTSTYYADSVKGRFTISRDNAKNTVYLQMNSLKPEDTSVYYCNAEYTKTGALVIPYTYYYAADYWGQGTQVTVSS | low polyreactivity
19 | QLQLVESGGGLVQAGGSLRLSCAASGLIFPFYAMGWYRQAPGKERELVAAITSSGNTYYADSVKGLFTISRDNAKNTVYLQMNSLKPEDTAVYYCAADGSRIVKFDYWGQGTQVTVSS | high polyreactivity
20 | QLQLVESGGGLVQAGGSLRLSCAASGRIFDGNTMGWYRQAPGKERELVAAITYSGGRTSYADSVKGRFTISRDNAKNTVYLQMISLKPEDTAVYYCNARVVTGSWYEGYYWGQGTQVTVSS | low polyreactivity
21 | QLQLVESGGGLVQAGGSLRLSCAASGRIFRKNAMGWYRQAPGKERELVAAITSSGNTYYADSVKGRFTISRDNAKNTVYLQMNSLKTEDTAVYYCAARLKWLNRYGYDYWGQGTQVTVSS | low polyreactivity
22 | QLQLVESGGGLVQAGGSLRLSCAASGRIFYPYAMGWYRQAPGKERELVPAIDYSDGNSYYADSVKGRFTISRDNAKNTVYLQMNSLKPEDTAVYYWAVEYTGAWIGVWYDYWGQGTQVTVSS | high polyreactivity

Row | Sequence | polyreactivity (PSR sort gate)
23 | QLQLVESGGGLVQAGGSLRLSCAASGRIFYVNAMGWYRQAPGKERELVASITDGSSTYYADSVKGRFTISRDNAKNTVYLQMNILKPEDTAVYYCAVRAAYWGAHYYYWGQGTQVTVSS | high polyreactivity
24 | QLQLVESGGGLVQAGGSLRLSCAASGRTFDSYAMGWYRQPPGKERELVAAIYADSVKGRFTISRDIAKNTVYLQMYSLTPEDSAVYYCAAETYSGQTYLGEYDYWGQGTQVTVSS | low polyreactivity
25 | QLQLVESGGGLVQAGGSLRLSCAASGRTFQLYAMGWYRQAPGKERELVAAISYSGGSTYYADSVKGRFTISRDNAKNSVYLQTNSLKPEDTAVYYCAARPRSTRPSYYYRSAGYYWGQGTQVTLSS | high polyreactivity
26 | QLQLVESGGGLVQAGGSLRLSCAASGSIFVVNAMGWYRQAPGKERELVAAISRGGITNYADSVKGRFTISRDNAKNTVYLQMNILKPEDTAVYYCNARGSRWVKPERDYWGQGTQVTVSS | low polyreactivity
27 | QLQLVESGGGLVQAGGSLRLSCAASGSTFAANAMGRYRQAPGKERELVAASTSSGGSTYYADSVKGRFTISRDNAQNTVYLQMNSLKPEDTAVYYCAADRWYITLSIDATISYDYWGQGTQVTVSS | low polyreactivity
28 | QLQLVESGGGLVQAGGSLRLSCAASGSTFTDYAMGWYRQAPGKERELVAAISWSGGSTYYADSVKGRFTISRDNAKNTVYLQMNSLKPEDTAVYYCAFRYHGYDYWGQGTQVTVSS | high polyreactivity
29 | QLQLVESGGGLVQAGGSLRLSCAASGSTIDHNAMGWYRQAPGKERELVATISSSGGSTYYADSVKGRFTISRDNAKNTVYFQMNSLKPEDTAGYDCNRYFRRGGRYPYNYWGQGTQVTVSS | high polyreactivity
30 | QLQLVESGGGLVQAGGSLRLSCAASGSTYHINAMGWYRQAPGKERELVADINWSGGSTYYADSVKGRFTISRDNAKNTVYLQMNSLKPEDTAVYYCAADVGVFTYSPYDAGEHDYWGQGTQVTVSS | low polyreactivity
31 | QLQLVESGGGLVQAGGSLRLSCAASGYTFTSYTKGWYRQAPGKEWELVAAITWTGGRTYYADSVKGRFTISRDNAKNTVYLQMNSLKPEDTAVYFCAGSWRKVDYWGQGTQVTVSS | high polyreactivity
32 | QLQLVESGGGLVQAGGSLRLSCAPSGLTFGRYAMGGYRHAPGKERELVAAITARVGRTYYADSVKGRFTISRDNEKNTVYLQMNSLKPEDTAVYYCAAGPSYFWYSHEKYDYWGQGTQVTVSS | high polyreactivity
33 | QLQLVESGGGLVQAGGSLRLSCASTGSIFRPSPMGWYRPAPGKDRELVPDITWSGGSTYYADSVKGRFTISRDNAKNTVYLQMNSLKPEDTAVYYCAARFSYWARNSEYWGQGTQVTVSS | low polyreactivity
34 | QLQLVESGGGLVQAGGSLRRSCAPSGRILWVNAMGWSRQAPGKERELVAAISLSGGRTYYADSVKGRFTISRDNAKNTVYLQMNSLKPEDTAVYYCAARTVNYYYTTGDYWGQGTQVTVSS | low polyreactivity
35 | QLQLVESGGGLVQAVGSLRLSCAATGSIFYPYAMGWNRQAPGKERELVASISWSGGITYYADSVKGRFTISRDNAKNTVYLQMNSLKPEDTAVYYCAADFSWYLYDYDYWGQGTQVTVSS | low polyreactivity
36 | QLQLVESGGRLVQAGGSLRLSCAASGRTFGRYAMGWYIQAPGKEREFVSSISRSTGRTSYADSVKGRFTISRANAKNTVYLQMNSLKPEDTAVYYCAVRWYYYRDDTIYVLGRYDYWGQGTQVTVSS | high polyreactivity
37 | QLQLVESRGGLVQAGGSLRLSCASYGSIFIWYAMGWYRQATGKERELVAAITSSGSTNYADSVKGRFTISRDNAKNPVYLQMNSLKPEDTAVYYCAAEYTYYTYNLNYWGQGTQVTVSS | low polyreactivity
38 | QLQLVESVGGLVQAGGSLRLSCAGSGRIFGRSAMGWYTHAPGKHRALVAAISRSGGSTYYADSVKGRVTISRDKAKNTVYLQMYSLKPEDTAVYNCNRRYITYNDDYWGQGTQVTVSS | high polyreactivity
39 | QLQLVQSGGGLVQAGGILRLSCAPSGSIFTPNTMGWYSQAPGKERELVAAITIRGGSTYYADSVKGSFTISRDNANITVYLQMNSLKPEDTAVYYCATEYGLRYYLVDYWGQGTQVTVSS | low polyreactivity
40 | QMQLQESGGGLVQAGGSLRLSCAPSGTIIRVRYMGWHRQAPGKDRELVAGINGGTTTYNSDSVIGRFTISRDNANNTVFLQMNSLKPDDTAVYKCAAGASRLTYYDYWGQGTQVTVSS | low polyreactivity
41 | QMQLQESGGGLVQAGGSQRLSCAASDSISIGAGMGWYRQAPGKERELVAGISVGTSTNYADSVNGRFTISRVNAKNTVYLQMNSLKPEDTAVYYCAKGYRRVYGPFYYWGQGTQVTVSS | low polyreactivity
42 | QQLQESGGGLVQAGGSLRLSCAASGSISGSVLMGWYRQAPGKEREFVASISLGGNTNYADSVKGRFTISRENAKNTVYLQMNSLKPEVAAVYYCAAYISLFETHPYWGQGTQVTVSS | high polyreactivity
43 | QVDLVESGGGLVQAGGSLRLSCAASGRTFQFNGMGWYRQAPVKERELVAGITSGGSTYYADSVKGRFTISRDNAKTTVYLQMISLKPEDTAVYYCAKDDPYFRGSPYFGRYPYGYWGQGTEVTVSS | high polyreactivity
